In US20140248295A1 (ROCKEFELLER UNIVERSITY, published 2014) one finds Kd data, which are given here for 7 molecules.

To fix the notation:
B1: Ibalizumab light chain mutant LM30E (antibody, human IgG1, kappa, V domains shown)
VH: QVQLQQSGPEVVKPGASVKMSCKASGYTFTSYVIHWVRQKPGQGLDWIGYINPYNDGTDYDEKFKGKATLTSDTSTSTAYMELSSLRSEDTAVYYCAREKDNYATGAWFAYWGQGTLVTVSS
VL: DIVMTQSPDSLAVSLGERVTMNCKSSQSLLYSTNNATYLAWYQQKPGQSPKLLIYWASTRESGVPDRFSGSGSGTDFTLTISSVQAEDVAVYYCQQYYSYRTFGGGTKLEIKR
B2: Ibalizumab light chain mutant LM65 (antibody, human IgG1, kappa, V domains shown)
VH: QVQLQQSGPEVVKPGASVKMSCKASGYTFTSYVIHWVRQKPGQGLDWIGYINPYNDGTDYDEKFKGKATLTSDTSTSTAYMELSSLRSEDTAVYYCAREKDNYATGAWFAYWGQGTLVTVSS
VL: DIVMTQSPDSLAVSLGERVTMNCKSSQSLLYSTNQKNYLAWYQQKPGQSPKLLIYWASTRESGVPDRFSGNATGTDFTLTISSVQAEDVAVYYCQQYYSYRTFGGGTKLEIKR
B3: Ibalizumab light chain mutant LM60 (antibody, human IgG1, kappa, V domains shown)
VH: QVQLQQSGPEVVKPGASVKMSCKASGYTFTSYVIHWVRQKPGQGLDWIGYINPYNDGTDYDEKFKGKATLTSDTSTSTAYMELSSLRSEDTAVYYCAREKDNYATGAWFAYWGQGTLVTVSS
VL: DIVMTQSPDSLAVSLGERVTMNCKSSQSLLYSTNQKNYLAWYQQKPGQSPKLLIYWASTRESGVPNATSGSGSGTDFTLTISSVQAEDVAVYYCQQYYSYRTFGGGTKLEIKR
B4: Ibalizumab light chain mutant LM53 (antibody, human IgG1, kappa, V domains shown)
VH: QVQLQQSGPEVVKPGASVKMSCKASGYTFTSYVIHWVRQKPGQGLDWIGYINPYNDGTDYDEKFKGKATLTSDTSTSTAYMELSSLRSEDTAVYYCAREKDNYATGAWFAYWGQGTLVTVSS
VL: DIVMTQSPDSLAVSLGERVTMNCKSSQSLLYSTNQKNYLAWYQQKPGQSPKLLIYWASNATSGVPDRFSGSGSGTDFTLTISSVQAEDVAVYYCQQYYSYRTFGGGTKLEIKR
B5: Ibalizumab light chain mutant LM52 (antibody, human IgG1, kappa, V domains shown)
VH: QVQLQQSGPEVVKPGASVKMSCKASGYTFTSYVIHWVRQKPGQGLDWIGYINPYNDGTDYDEKFKGKATLTSDTSTSTAYMELSSLRSEDTAVYYCAREKDNYATGAWFAYWGQGTLVTVSS
VL: DIVMTQSPDSLAVSLGERVTMNCKSSQSLLYSTNQKNYLAWYQQKPGQSPKLLIYWANSTESGVPDRFSGSGSGTDFTLTISSVQAEDVAVYYCQQYYSYRTFGGGTKLEIKR
notes: also called iMab-LM52; Ibalizumab LM52
B6: Ibalizumab light chain mutant LM67 (antibody, human IgG1, kappa, V domains shown)
VH: QVQLQQSGPEVVKPGASVKMSCKASGYTFTSYVIHWVRQKPGQGLDWIGYINPYNDGTDYDEKFKGKATLTSDTSTSTAYMELSSLRSEDTAVYYCAREKDNYATGAWFAYWGQGTLVTVSS
VL: DIVMTQSPDSLAVSLGERVTMNCKSSQSLLYSTNQKNYLAWYQQKPGQSPKLLIYWASTRESGVPDRFSGSGNATDFTLTISSVQAEDVAVYYCQQYYSYRTFGGGTKLEIKR
B7: Ibalizumab light chain mutant LM76 (antibody, human IgG1, kappa, V domains shown)
VH: QVQLQQSGPEVVKPGASVKMSCKASGYTFTSYVIHWVRQKPGQGLDWIGYINPYNDGTDYDEKFKGKATLTSDTSTSTAYMELSSLRSEDTAVYYCAREKDNYATGAWFAYWGQGTLVTVSS
VL: DIVMTQSPDSLAVSLGERVTMNCKSSQSLLYSTNQKNYLAWYQQKPGQSPKLLIYWASTRESGVPDRFSGSGSGTDFTLTINATQAEDVAVYYCQQYYSYRTFGGGTKLEIKR

For the experiment, the target named is T1, Recombinant sCD4 comprising the full-length extracellular domain of human CD4 (human, UniProt P01730 26-396).
T1 construct: also called human sCD4 protein; CD4 protein
The experiment in a line: SPR (Biacore), antibody on CM5 chip by amine coupling, sCD4 as analyte, 25 C. The procedure:
Binding affinity analyses were performed with a T3000 instrument (GE Healthcare, Piscataway, N.J.). […] Briefly, carboxyl groups on the sensor chip surface were activated by injection of a solution containing 0.2 M EDC and 0.05 M NHS. Next, sCD4 protein in 10 mM NaOAc buffer (pH5) was flowed over the chip surface until the desired level of response units was achieved. After unreacted protein was washed out, excess active ester groups on the sensor surface were capped by the injection of 1 M ethanolamine, pH 8.0. Binding experiments were performed at 25° C. in HBS-EP buffer (GE Healthcare). Binding kinetics were measured by passing various concentrations of human sCD4 protein over the chip surface. For kinetics data analysis, the kinetic parameters ([…], association rate constant; koff, dissociation rate constant; KD, equilibrium dissociation constant) were determined by collectively fitting the overlaid sensograms using the BIAevaluation 4.1 software.
CD4 binding affinities of these mutant antibodies were examined using surface plasmon resonance.
In general, Kd refers to the concentration at which binding is half-saturated. For the molecule B1, the Kd is 1.3 nM.

Regarding B2, the Kd came out at 1.5 nM.

B3: the Kd came to 0.19 nM.

For B4, the Kd was 0.53 nM.

On to B5, for which the Kd worked out at 0.35 nM.

As to B6, the Kd came to 0.8 nM.

Regarding B7, the Kd came to 0.28 nM.
